Laboratory results as given in patent US9803013B2, “Biological materials and uses thereof” (BioInvent International AB, priority 2005, dated 2017).

Key:
MM cells = assay: FACS analysis of BI-505 epitope expression on patients' plasma cells; type: binding, human; design: key to BI-505 epitope expression Intensity: BI-505 negative cells (−) are B-cells from patient number 8; (+), (++) and (+++) corresponding to patient number 8, 7 and 10; (+), (++) and (+++) corresponding to patient number 8, 7 and 10; (+), (++) and (+++) corresponding to patient number 8, 7 and 10; settings: for BI-505 epitope expression Intensity: FACS on MM cells
From the text: (FIG. 16A) Analysis of myeloma cells in bone marrow from multiple myeloma patients by flow cytometry. Myeloma cells were gated based on expression of CD138, CD38, CD56 and CD45 according to international guidelines (Rawstron et al., 2008). Furthermore, intracellular staining was used to confirm monoclonal expression by K and A staining. B1-505 epitope expression was categorized as shown in the histogram (right position) with (+), (++) and (+++) corresponding to patient number 8, 7 and 10. BI-505 negative cells (−) are B-cells from patient number 8.
It was next evaluated the expression of the BI-505 epitope on bone marrow cells in patients with MM and related diseases (plasmacytoma, plasma cell leukemia, and light chain amyloidosis) by flow cytometry (FIG. 15 and Table 4). Myeloma cells were identified using fluorescent antibodies against surface antigens CD38, CD138, CD45 and CD56 (FIG. 16A) according to European Myeloma Network guidelines on multiparametric flow cytometry in MM (Rawstron et al., 2008) and confirming monoclonal MM cells with intracellular staining of λ and κ light chains. All MM patients expressed the BI-505 epitope on most (97±4%, mean±SD, patient n=22) myeloma cells (FIG. 15 and Table 4). The BI-505 epitope was generally very highly expressed on these cells, with median expression level 10 times higher than on normal B cells from the same patients. Similar results were obtained with a commercially available anti-ICAM-1 antibody (data not shown). Furthermore, the BI-505 epitope was highly expressed on myeloma cells in a patient in relapse who had received several different lines of therapy (FIG. 16B). Thus, ICAM-1 and the BI-505 epitope are strongly expressed on the surface of MM plasma cells.
Plasma cell surface expression of ICAM-1 and the BI-505 epitope was analyzed by FACS. Bone marrow aspirates were obtained from 29 patients diagnosed with MM or related diseases at the Department of Hematology, Skånes University Hospital, Lund. All human samples were collected using protocols approved by the Ethics Committee of Skåne University Hospital, and informed consent was obtained from all patients.
Bone marrow aspirates from 29 patients diagnosed with MM or related diseases (plasmocytoma, plasma cell leukemia, or amyloid light chain amyloidosis) at the Department of Hematology, Skånes University Hospital, Lund were analyzed by flow cytometry using 4 cocktails of antibodies, each suitable for recognizing plasma cells (Figure S3) after informed consent and with the approval of the local ethical committee. Clinical data were obtained from patients' charts.

[1] = tested on: panel of ICAM-1-expressing tumor cell lines; assay: CDC; type: cell-based; settings: human serum
Procedure: Target cells were harvested as described above (under ADCC heading) and incubated with antibodies at 5 μg/mL for 60 min on ice and then washed. Human serum, normal or heat-inactivated (Sigma, Sweden), was added to tubes and the samples were incubated for 2 hr at 37° C. After completion of incubation, ToPo-Pro-3 (Invitrogen) was added at a final concentration of 0.3 μM and cells were analyzed for membrane permeabilization using flow cytometry.

B1: B11: fully human IgG1 antibody specific for ICAM-1; VH and VL sequences of FIG. 10 (SEQ ID NOs. 6 and 8) (antibody, listed as Homo sapiens, V domains shown)
VH: EVQLLESGGGLVQPGGSLRLSCAASGFTFSNAWMSWVRQAPGKGLEWVAFIWYDGSNKYYADSVKGRFTISRDNSKNTLYLQMNSLRAEDTAVYYCARYSGWYFDYWGQGTLVTVSS
VL: QSVLTQPPSASGTPGQRVTISCTGSSSNIGAGYDVHWYQQLPGTAPKLLIYDNNNRPSGVPDRFSGSKSGTSASLAISGLRSEDEADYYCQSYDSSLSAWLFGGGTKLTVLG
MM cells; all MM patients, mean±SD, patient n=22
  myeloma cells expressing the BI-505 epitope: 97±4%
MM cells; patient 1, MM
  BI-505 epitope expression Positive cells (%): 98%
  BI-505 epitope expression Intensity: +++
MM cells; patient 2, MM
  BI-505 epitope expression Positive cells (%): 97%
  BI-505 epitope expression Intensity: +++
MM cells; patient 3, MM
  BI-505 epitope expression Positive cells (%): 100%
MM cells; patient 4, nsMM
  BI-505 epitope expression Positive cells (%): 100%
  BI-505 epitope expression Intensity: +++
MM cells; patient 5, MM
  BI-505 epitope expression Positive cells (%): 100%
  BI-505 epitope expression Intensity: ++
MM cells; patient 6, MM
  BI-505 epitope expression Positive cells (%): 98%
  BI-505 epitope expression Intensity: +++
MM cells; patient 7, MM
  BI-505 epitope expression Positive cells (%): 98%
  BI-505 epitope expression Intensity: +++
MM cells; patient 8, MM
  BI-505 epitope expression Positive cells (%): 100%
  BI-505 epitope expression Intensity: +++
MM cells; patient 9, MM
  BI-505 epitope expression Positive cells (%): 100%
  BI-505 epitope expression Intensity: ++
MM cells; patient 10, MM
  BI-505 epitope expression Positive cells (%): 95%
  BI-505 epitope expression Intensity: +
MM cells; patient 11, MM
  BI-505 epitope expression Positive cells (%): 100%
  BI-505 epitope expression Intensity: +++
MM cells; patient 12, nsMM
  BI-505 epitope expression Positive cells (%): 95%
MM cells; patient 13, MM
  BI-505 epitope expression Positive cells (%): 100%
  BI-505 epitope expression Intensity: +++
MM cells; patient 14, MM
  BI-505 epitope expression Positive cells (%): 100%
  BI-505 epitope expression Intensity: +++
MM cells; patient 15, MM
  BI-505 epitope expression Positive cells (%): 100%
  BI-505 epitope expression Intensity: +++
MM cells; patient 16, MM
  BI-505 epitope expression Positive cells (%): 88%
  BI-505 epitope expression Intensity: ++
MM cells; patient 17, MM
  BI-505 epitope expression Positive cells (%): 100%
  BI-505 epitope expression Intensity: +++
MM cells; patient 18, MM
  BI-505 epitope expression Positive cells (%): 100%
  BI-505 epitope expression Intensity: +++
MM cells; patient 19:1, MM
  BI-505 epitope expression Positive cells (%): 93%
  BI-505 epitope expression Intensity: +++
MM cells; patient 19:2, MM
  BI-505 epitope expression Positive cells (%): 95%
  BI-505 epitope expression Intensity: +++
MM cells; patient 19:3, MM
  BI-505 epitope expression Positive cells (%): 91%
  BI-505 epitope expression Intensity: +++
MM cells; patient 20, MM
  BI-505 epitope expression Positive cells (%): 100%
  BI-505 epitope expression Intensity: +++
MM cells; patient 21, MM
  BI-505 epitope expression Positive cells (%): 93%
  BI-505 epitope expression Intensity: +++
MM cells; patient 22, MM
  BI-505 epitope expression Positive cells (%): 86%
  BI-505 epitope expression Intensity: +++
MM cells; patient 23, AL
  BI-505 epitope expression Positive cells (%): 97%
  BI-505 epitope expression Intensity: ++
MM cells; patient 24, AL
  BI-505 epitope expression Positive cells (%): 100%
  BI-505 epitope expression Intensity: +++
MM cells; patient 25, LCDD/MM
  BI-505 epitope expression Positive cells (%): 98%
  BI-505 epitope expression Intensity: +++
MM cells; patient 26, PCL
  BI-505 epitope expression Positive cells (%): 76%
  BI-505 epitope expression Intensity: +++
MM cells; patient 27, PCL
  BI-505 epitope expression Positive cells (%): 77%
  BI-505 epitope expression Intensity: +
MM cells; patient 28, PC
  BI-505 epitope expression Positive cells (%): 93%
  BI-505 epitope expression Intensity: +++
MM cells; patient 29, PC
  BI-505 epitope expression Positive cells (%): 100%
  BI-505 epitope expression Intensity: +++
MM cells; patient, bone marrow number 2 versus diagnosis
  increase of mean BI-505 expression in myeloma cells after first relapse: two-fold
[1]
  CDC: did not induce CDC
